We go through 72 sequences from the supplement of paper PMC10567573.

A short description of this series: protein stability index of a GFP-peptide fusion (GPS, HEK-293T) (PSI 1-6); higher = more stable.
The mark [1] stands for this setting: treatment: DMSO, c terminus: a fixed tail appended.
Setting [2] is: treatment: MLN4924 1 uM, 8 h, c terminus: a fixed tail appended.

± gives the standard deviation.
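Also: 24-mer peptide tiles fused after GFP, lentivirally expressed, FACS-sorted into six equal bins by GFP/DsRed ratio, decoded by Illumina sequencing, PSI is the read-weighted mean bin number.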

For the sequence KSHLIFPQPNYADTLISQESCEKN [PCDHGA10], the protein stability index was 4.32 ± 0.17 under setting [1] and 4.32 ± 0.21 under setting [2].
The sequence KSITSAMNELQHDLDVVSDALAKV [TPH1] had a protein stability index under setting [1] of 4.4 ± 0.18 and a protein stability index under setting [2] of 4.47 ± 0.12.
Turning to KSRRKAALSSPRSRKNATQPPNAE [INTS3], the protein stability index came to 5.08 ± 0.33 under setting [1] and 4.98 ± 0.39 under setting [2].
On the same counts, the results for KSYNICFELEDSNEIFTQLYRTLF [PDS5B] are 3.05 ± 0.83 and 2.87 ± 0.61.
Take KTEDENKQSFLDGGKGHHLPSENL [TOR1AIP2]: the protein stability index under setting [1] turned out to be 5.4 ± 0.21 and the protein stability index under setting [2] was determined as 5.27 ± 0.22.
KTTQEAEKLLERQGQAKTPDSMFL [CDK11A] returned a protein stability index under setting [1] of 4.68 ± 0.28 and a protein stability index under setting [2] of 4.73 ± 0.2.
Regarding KVHMKDVMSALWVSGLDSSYLREQ [GAN], the protein stability index reads like this: under setting [1], 2.1 ± 0.47; under setting [2], 2.23 ± 0.26.
The like results for KVIYLDDDVIVQGDIQELYDTTLA [GLT8D2] were, in that order, 2.65 ± 0.36 and 2.94 ± 0.29.
On to KVRALEEANADLEVKIRDWHLKQS [KRT13], for which the protein stability index reads like this: under setting [1], 4.05 ± 0.2; under setting [2], 4.22 ± 0.13.
For KYTPSNKHGFSWAVPKFMKRIKVP [DLC1], the protein stability index under setting [1] is 2.49 ± 0.36 and the protein stability index under setting [2] is 2.6 ± 0.44.
LADDHLIEVNGENVEDASHEEVVE [PDZK1]: the protein stability index by setting is: under setting [1], 5.65 ± 0.1; under setting [2], 5.54 ± 0.24.
On the same counts, the results for LAGTQLLYAFFTRTHGDMHSLVRS [TRIB3] are 3.13 ± 0.38 and 3.05 ± 0.35.
The like results for LALRGRLQLEACGMRRKSLLTRKV [GOLPH3] were, in that order, 2.26 ± 0.13 and 2.41 ± 0.21.
On the same counts, the results for LALYTPVGAAGSARQELLGDRPRW [ANKRD9] are 3.28 ± 0.27 and 2.96 ± 0.21.
As to LANPVLESTPVGTVVGLFNVRDRD [PCDHGC5], the protein stability index by setting is: under setting [1], 4.08 ± 0.35; under setting [2], 4.06 ± 0.34.
On the same counts, the results for LASPHTVAAVLEAVAQTAHLPADS [RSAD1] are 3.61 ± 0.33 and 3.83 ± 0.25.
The like results for LDDGEIDEIRWKYHSDTTPKIIES [IQUB] were, in that order, 4.25 ± 0.23 and 3.98 ± 0.24.
On to LDISDSISESGGLNWKMTLCLLVA [SLC6A17], for which the protein stability index runs as follows: under setting [1], 2.54 ± 0.48; under setting [2], 2.5 ± 0.79.
In the case of LDKVKDGGYRPAEDKIFPVPEEPP [ZBED1], the protein stability index is 5.11 ± 0.18 under setting [1] and 5 ± 0.16 under setting [2].
With LDMDDGTLSFIVDGQYMGVAFRGL [SPSB1], the protein stability index reads like this: under setting [1], 2.61 ± 0.67; under setting [2], 2.32 ± 0.31.
The like results for LDWISYQVEKNKYDASAIDFSRCD [ELF3] were, in that order, 2.93 ± 0.23 and 3.01 ± 0.1.
The like results for LEAAEVILEHAHRGEQTTSQVSWE [FCHSD1] were, in that order, 3.63 ± 0.58 and 4.25 ± 0.79.
On to LEIYQSSQDEPIALDKQHSRDSAA [NOL4L], for which the protein stability index is 4.89 ± 0.24 under setting [1] and 5.16 ± 0.12 under setting [2].
In the case of LELGSYIKDLSVVHSDLSSIVILD [CTDNEP1], the protein stability index was found to be 2.4 ± 0.13 under setting [1] and 2.48 ± 0.62 under setting [2].
As for LELNFKAGDVIFLLSRINKDWLEG [NCF4], the protein stability index was found to be 2.77 ± 0.7 under setting [1] and 3.09 ± 1.6 under setting [2].
The like results for LEQCSASIEVGGSVNFDGETIEGA [FEM1C] were, in that order, 5.4 ± 0.3 and 5.14 ± 0.57.
Take LFMKKNHEEEVKGLQAQIASSGLT [KRT18]: the protein stability index by setting is: under setting [1], 3.81 ± 0.15; under setting [2], 3.98 ± 0.27.
LFQFSNCSQGQQLATFSSDWEIQE [CCDC3] displayed a protein stability index under setting [1] of 3.12 ± 0.45 and a protein stability index under setting [2] of 2.94 ± 0.33.
Consider LFQLSCSSTQLNELLLFAVGFIMA [OR3A1], for which the protein stability index came to 2.71 ± 0.45 under setting [1] and 2.98 ± 0.87 under setting [2].
For LFTIPLLYRQHQAQIDQYVGLVTN [RTN2], the protein stability index amounted to 2.81 ± 0.57 under setting [1] and 2.95 ± 0.48 under setting [2].
Regarding LFVIVPVLGPLVALIICYNWLHRR [MOG], the protein stability index runs as follows: under setting [1], 3.38 ± 0.68; under setting [2], 3.11 ± 0.58.
For the sequence LFYKPGIVLLLALAKYLKMNNFL [GULP1], the protein stability index by setting is: (treatment: DMSO, c terminus: native) 2.87 ± 0.92; (treatment: MLN4924 1 uM, 8 h, c terminus: native) 2.87 ± 0.91.
For LGAEESLGLLDDYLEVAKHFKPHG [ATF4], the protein stability index is 3.24 ± 0.33 under setting [1] and 3.56 ± 0.36 under setting [2].
On the same counts, the results for LGAVAGLALGPILRLYKHNSQALL [MFSD9] are 2.59 ± 1.1 and 2.43 ± 0.15.
Regarding LGHPALSQEEGKSALEDQGSNPSS [PPFIA4], the protein stability index was determined as 5.59 ± 0.21 under setting [1] and 5.25 ± 0.91 under setting [2].
LGKTNAKAVSEMRQKIWNNMPKDH [DYNC2LI1]: the protein stability index was 3.38 ± 0.23 under setting [1] and 3.62 ± 0.37 under setting [2].
As for LGLSKLARIVEIYSRRLQVQERLT [GCH1], the protein stability index came out at 2.71 ± 0.65 under setting [1] and 2.2 ± 0.41 under setting [2].
The like results for LHKIYLCQSGYFSSMFSGSWKESS [GMCL1] were, in that order, 2.26 ± 0.82 and 2.18 ± 0.37.
On the same counts, the results for LHKQVLMGPYNPDTCPEVGFFDVL [ACBD3] are 2.4 ± 0.31 and 2.18 ± 0.21.
On the same counts, the results for LHYAAMHGRARIARLMLESEYRSD [ASB7] are 2.73 ± 0.19 and 2.77 ± 0.28.
Regarding LIANRSYKVSAASSFFFSGVFVGV [SLC22A15], the protein stability index is, setting by setting: under setting [1], 2.69 ± 0.8; under setting [2], 2.49 ± 0.64.
In the case of LIFSPCSDCEEEEEEEEEEGSGHS [WEE1], the protein stability index runs as follows: under setting [1], 4.88 ± 0.19; under setting [2], 5.03 ± 0.13.
Regarding LIILWKNGERESGLRSLRLFQKLE [WDR41], the protein stability index stood at 2.15 ± 0.26 under setting [1] and 2.5 ± 0.49 under setting [2].
The like results for LKAFNMFVRLFVDENLDRMVPISK [NOL4L] were, in that order, 2.67 ± 0.61 and 2.41 ± 0.27.
On the same counts, the results for LKEAPVQDQGYKTLRLRENCVLSS [ZNF8] are 3.88 ± 0.12 and 3.84 ± 0.1.
On the same counts, the results for LKLQTKDGHRPEWTFYPRFSSNIH [SPATS1] are 2.4 ± 0.3 and 2.48 ± 0.32.
For the sequence LKTLEEGLEGLEDAPPVELQLLHE [FANCE], the protein stability index is, setting by setting: under setting [1], 4.81 ± 0.26; under setting [2], 4.91 ± 0.38.
For the sequence LLCAVCYDPFRDAVTLRCGHNFCR [TRIM35], the protein stability index runs as follows: under setting [1], 2.38 ± 0.23; under setting [2], 2.46 ± 0.29.
With LLDKAGVPPGVVNIVFGTGPRVGE [ALDH8A1], the protein stability index is, setting by setting: under setting [1], 2.53 ± 0.16; under setting [2], 2.76 ± 0.51.
With LLELAGEVTDTGDPIVRPLWWIAP [MYORG], the protein stability index was 2.46 ± 0.21 under setting [1] and 2.43 ± 0.24 under setting [2].
The like results for LLEQAGSLKGSLSVEEQLSLISGC [CRYL1] were, in that order, 2.98 ± 0.32 and 3.2 ± 0.39.
On the same counts, the results for LLFACSPPPASQPVVKALFGASAA [CDC25A] are 2.44 ± 0.12 and 2.35 ± 0.12.
On the same counts, the results for LLGALVLLGLGVLLFSGGLSESET [PBXIP1] are 2.29 ± 0.77 and 2.47 ± 0.89.
On to LLGATKRSMVFKDVLLLGNDYIVP [HNF4A], for which the protein stability index turned out to be 2.28 ± 0.34 under setting [1] and 2.3 ± 0.11 under setting [2].
Regarding LLHNDEYQETMVESTFMYLTLDLP [USP39], the protein stability index worked out at 2.31 ± 0.29 under setting [1] and 2.29 ± 0.34 under setting [2].
Turning to LLKRIKKCCGMRNTDVSMENMVTV [KCNK9], the protein stability index is 2.22 ± 0.52 under setting [1] and 2.32 ± 0.25 under setting [2].
Turning to LLKSHTNVLSVNLPDNFTLKEDGM [TPH1], the protein stability index by setting is: under setting [1], 3.15 ± 0.24; under setting [2], 3.22 ± 0.34.
The like results for LLKTEALKRQAQEEAKGALLGTSG [DAPK3] were, in that order, 4.89 ± 0.15 and 4.47 ± 0.12.
On the same counts, the results for LLTSPRAINNLVLQGCSSIGLRLV [KLHL14] are 2.92 ± 0.53 and 2.74 ± 0.69.
On the same counts, the results for LLVGAAVFDALESDHEMREEEKLK [KCNK9] are 4.26 ± 0.34 and 4.29 ± 0.24.
For LMFFIMAAMLSMVKYNSCADRPFS [POMT2], the protein stability index amounted to 3.19 ± 0.7 under setting [1] and 3.06 ± 0.32 under setting [2].
On the same counts, the results for LMMRGVKHHNLEGLRKRIATLFFH [IQUB] are 2.34 ± 0.62 and 2.52 ± 0.7.
The like results for LMSYERRQILHLITMMALKVLGEL [TENT5D] were, in that order, 2.67 ± 0.24 and 2.39 ± 0.31.
On the same counts, the results for LNGDYGENIYPYEEDKDEKSSIYE [MIA2] are 3.78 ± 0.7 and 3.94 ± 0.72.
With LNKLYPTHACREYLKNLPLLSKYC [TPH1], the protein stability index came out at 2.41 ± 0.45 under setting [1] and 2.23 ± 0.46 under setting [2].
The like results for LPEKACQLDSRYWRITNAKGDVEE [FBXO3] were, in that order, 4.47 ± 0.11 and 4.49 ± 0.52.
For the sequence LPGGTTGLQLPSTLPVSGNLLDVY [TFE3], the protein stability index runs as follows: under setting [1], 3.24 ± 0.31; under setting [2], 3.23 ± 0.17.
In turn, LPLGIKVYEDETKVVHAVDGTAEN [PALM] showed a protein stability index under setting [1] of 5.02 ± 0.17 and a protein stability index under setting [2] of 5.03 ± 0.23.
LQLYFWKDREFHELQGDFSVPDVP [VPS39]: the protein stability index came out at 2.02 ± 0.46 under setting [1] and 2.17 ± 0.22 under setting [2].
On to LQREKEFKAKEAAALGSRGSCSTE [ATP6V1G1], for which the protein stability index is, setting by setting: under setting [1], 5.12 ± 0.14; under setting [2], 5.1 ± 0.48.
With LQTLRSFSHTLVSLSLFGCTNIFY [ZER1], the protein stability index under setting [1] amounted to 2.26 ± 0.35 and the protein stability index under setting [2] was 3.67 ± 1.3.
Take LQVIKALKSSGLCESLTYGLPFIL [M1AP]: the protein stability index is, setting by setting: under setting [1], 3.04 ± 0.94; under setting [2], 2.81 ± 0.83.
